12 molecules from patent publication US20110286916A1 (published 2011) can be followed below.

Numbering of substitutions follows the chain as printed. Where only a bound is given, the exact number is not on record here.

Sequences and labels used below:
B1: WC-168 (antibody, human IgG1, lambda, V domains shown)
VH: EVQLVQSGAEVKKPGASVKVSCKASGYNFTGYYMHWVRQAPGQGLEWMGWINPNSGGTNYAQKFQGRVTMTRDTSISTAYMELSRLRSDDTAVYYCATDSFDYWGRGTLVTVSS
VL: not shown
notes: also called N1wc168; hN1wc-168
B2: WC-97 (antibody, human IgG1, lambda, V domains shown)
VH: B1 VH with T69A, T91S, L109T
VL: QSVLTQPPSVSGAPGQRVTISCTGTSSNIGAGYDVQWYQQLPGTAPKVLMYGNSNRPSGVPDRFSGSKSGTSASLAITGLQAEDEADYYCQSYDSSLSGSLFGTGTKVTVLQ
notes: also called N1wc97; hN1wc-97
B3: WC-155 (antibody, human IgG1, lambda, V domains shown)
VH: B1 VH
VL: QSVLTQPPSVSGAPGQRVTISCTGSSSNIGAGYDVLWYRQLPGTAPKLLIYGNTHRPSGVPDRFSGSNSGTSASLAITGLQAEDEADYYCQSYDSSLSGSVFGGGTKLTVLQ
notes: also called N1wc155; hN1wc-155
B4: S3-094 (antibody, human IgG1, lambda, V domains shown)
VH: B1 VH with L109M
VL: QSVLTQPPSASGTPGQRVTISCSGGSSNIGSNTVTWYQQLPGKAPKLLIYISDQRPSGVPDRFSGSKSGTSASLAIRGLQSEDEADYYCAAWDDSLNGAVFGTGTKVTVLQ
notes: also called hN1S3-094; HN1S3-94
B5: WC-173 (antibody, human IgG1, lambda, V domains shown)
VH: B1 VH with R106Q, L109T
VL: QPVLTQPPSASWTPGQRVTISCSGSSSNIGSNTVHWYRQFPGTAPQLLIYSNNQRPSGVPDRFSGSKSGTSASLAIRGLQSEDEADYYCAAWDDSLNGVVFGGGIKLTVLQ
notes: also called N1wc173; hN1wc-173
B6: S3-056 (antibody, human IgG1, lambda, V domains shown)
VH: B1 VH with E1Q, V5Q
VL: not shown
notes: also called hN1S3-056; HN1S3-56
B7: S3-013 (antibody, human IgG1, lambda, V domains shown)
VH: B1 VH
VL: QPVLTQPPSASGTPGQRVTISCSGSSSNIGSNYVYWYQKFPGTAPKLLIYTNNQRPSGVPDRFSGSKSGTSASLAISGLRSEDEADYYCAAWDDSLSGVVFGGGTKVTVLQ
notes: also called hN1S3-013; HN1S3-13
B8: WC-159 (antibody, human IgG1, lambda, V domains shown)
VH: QLQLVETGGGLVKPGESLTLSCAASGFTFSSYSMNWVRQAPGKGLEWVSSISSSGSSIYYADSLKGRFTISRDNAKNSLYLQMNSLRAEDTAVYYCTRGTQWLAGVGDYWGKGTLVTVSS
VL: QSALTQPPSASASPGQSVTISCTGTSSDVGAYDSVSWYQQHPGKAPKLIIYDVNNRPSGVSNRFSGSESGNTASLTISGLQAEDEANYYCSSYRNTKTVVFGGGTKLTVLQ
notes: also called N1wc159
B9: FL-SKNAS-C2-514 (antibody, human IgG1, lambda, V domains shown)
VH: EVQLVQSGAEVKEPGESLRISCKASGYDFSNYWIAWVRQMPGKGLEWMGIIYPGDSDTRYSPSFQGQVTISVDRSISTAYLQWSSLKASDTALYYCSRPTYWSTTWGREFDYWGQGTLVTVSS
VL: SYELTQPPSVSVSPGQTATITCSGDALPKKYAYWYQQKSGQAPVLVVYEDSKRPSGIPERFSGSSSGTMATLTISGAQVEDEADYYCYSTDSSGNHWVFGGGTKLTVLG
notes: full IgG1/lambda chains; name tied through the DNA section of Appendix IX (same order); also called B-000000402-000X
B10: FL-SKNAS-D2-268 (antibody, human IgG1, lambda, V domains shown)
VH: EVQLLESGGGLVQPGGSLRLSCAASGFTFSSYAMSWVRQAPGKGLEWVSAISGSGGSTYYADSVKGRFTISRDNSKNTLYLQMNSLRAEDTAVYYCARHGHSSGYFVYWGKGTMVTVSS
VL: QAVLTQPSSVSGAPGQRVTISCTGTSSNIGAPYDVNWYQQLPGIAPKLLISGNTNRPSGVPDRFSGSKSGASASLAITGLQADDEADYYCQSYDHSLSGWVFGGGTKVTVLG
notes: full IgG1/lambda chains; name tied through the DNA section of Appendix IX (same order); also called B-000000395-000V
B11: FL-JEG3-C2-11 (antibody, human IgG1, lambda, V domains shown)
VH: QLQLVETGGGLVQPVGSLRLSCAASGFSFDNYAMSWVRQAPGKGLEWVSSISGSGGQIFYADSVKGRFTISRDNAKNTLVLQMNSLRVDDTAVYYCARDFYRTPGYNTNWGYWGRGTMVTVSS
VL: SYVLTQPPSVSVSPGETASISCSGDGLGNKYVAWYQQKPGQSPVLVIQQDSKRPSGIPERFSGSNSGDTATLTISGTQSLDEGDYYCQAWDRPAVIFGGGTKLTVLG
notes: full IgG1/lambda chains; name tied through the DNA section of Appendix IX (same order); also called JEG-C2-11; B-000000399-000E
B12: A2780-C2-16 (antibody, human IgG1, lambda, V domains shown)
VH: EVQLVQSGAEVKKPGSSVKVSCKASGGTFSSFAFSWVRQAPGQGLDWMGRIIPILGRTNYAQKFQGRVTFTADTSTSTVYMELSSLSSEDTAVYYCARDREYSLSLGGSDYWGQGTLVTVSS
VL: QAVLTQPSSVSGAPGQRVTISCIGSSSNIGAGYDVHWYRQPPGTAPQLLIYANTNRPSGVPDRFSGSRSGTSASLAITGIQAEDEADYYCQSYDSSLSGRVFGGGTKVTVLG
notes: full IgG1/lambda chains; name tied through the DNA section of Appendix IX (same order); also called B-000000397-000M

One assay has as its target T1, Notch1 extracellular fragment (amino acid 19-526) Fc fusion protein, R&D Systems 3647-TK (human, UniProt P46531 19-526).
T1 construct: bought protein; also called Notch1/Fc; Notch1-ECD Fc fusion protein; not shown: Fc of the bought fusion protein
As to the kind of experiment: BIAcore SPR, Notch1/Fc on CM5, Mab analyte, 1:1 binding. As for the experimental part:
All experiments were performed at 25° C. at a flow rate of 40 μl/min. […] FC1 was used as the reference cell. Specific signals were the results of differences of signals obtained on FC2 versus FC1. […] The dissociation phase of the analyte was monitored over a period of time ranging 10-30 minutes. Running buffer was also injected under the same conditions as a reference.
Equilibrium dissociation constant (KD) was calculated by the ratio between dissociation (koff) and association (kon) rate constants.
In turn, B1 yielded a Kd of 4.7 nM, a koff of 0.00228 s⁻¹ and a kon of 486000 M⁻¹ s⁻¹.
The matching figures for B2: 7.87 nM, 0.000438 s⁻¹ and 55600 M⁻¹ s⁻¹.
As for B3, binding was put at a Kd of 1.74 nM, the koff stood at 0.00029 s⁻¹ and the kon stood at 166000 M⁻¹ s⁻¹.
For B4, in that order: 3.89 nM, 0.00163 s⁻¹ and 420000 M⁻¹ s⁻¹.
The matching figures for B5: 3.27 nM, 0.000447 s⁻¹ and 137000 M⁻¹ s⁻¹.
The matching figures for B6: 5.65 nM, 0.00292 s⁻¹ and 517000 M⁻¹ s⁻¹.
Consider B7, for which the dissociation constant (Kd) came out at 4.92 nM, the koff stood at 0.00294 s⁻¹ and the kon was found to be 597000 M⁻¹ s⁻¹.

For the next assay, the target named is T1, Notch1 extracellular fragment (amino …). As to the kind of experiment: titration ELISA, antigen coated, purified IgG1. As for the experimental part: Plates were blocked with 300 ul of milk blocker per well and incubated for 2 hour at RT. […] After washing plates with PBS or TBS buffer, anti-human lambda light chain antibody with HRP was used for detection antibody and absorbance at 450 nm was read with a plate reader.
(In general: In an ELISA, binding on a coated surface is turned into a signal by an enzyme label.)
B8 came in with an EC50 of 0.12 nM.

In another assay the target is T2, human full-length Notch1 with C-terminal FLAG tag, stably expressed on 293 FlpIn (TREx) cells (human, UniProt P46531 19-2555).
T2 construct: tetracycline/doxycycline-induced expression from pcDNA5/FRT/TO-HN1+FLAG; also called hN1; 293_N1
Put plainly: FACS, hN1 293 cells, MFI grade (++ 101-500). As for the experimental part: (§1) Notch 293 FlpIn (TREx) cells were treated with dox (2 ug/ml) for two days to induce Notch expression before collecting them for FACS surface expression analysis. The cells were harvested from tissue culture flasks using Trypsin for 15 min, centrifuged at 1200 rpm for 10 minutes and resuspended in 2 ml PBS with 2% fetal bovine serum (2% FBS/PBS). The cells were counted, adjusted to 10⁷ cells/ml and 0.1 ml of cells was incubated with 1 ug of each Mab for 40 minutes at 4° C. The cells were washed, resuspended in 0.1 ml 2% FBS/PBS and incubated with 1 ug R-PE-conjugated goat anti-human Ig (Jackson ImmunoResearch) for 30 minutes at 4° C. Cells were washed, resuspended in 0.3 ml PBS with 10% formaldehyde and analyzed on a FACSCalibur (Becton Dickinson, Mt View, Calif.).
(In general: A flow cytometer gives signals particle by particle.)
B3: the MFI was 101 to 500 mfi.
Consider B4, for which the MFI is 101 to 500 mfi.
The same measure, in the same setting: to B5 belongs 101 to 500 mfi.

A further assay has as its target T2, human full-length Notch1 with …. Put plainly: FACS, hN1 293 cells, MFI grade (++++ >1000). As for the experimental part: as §1
Clones were analyzed as described in Section I-Example 12. We analyzed the corresponding Mabs for their binding to 293-N1, -N3 and 293 parental cells by flow cytometry.
The molecule B9 registered an MFI of more than 1000 mfi.
In turn, B10 showed an MFI of more than 1000 mfi.
Turning to B11, the MFI is more than 1000 mfi.
On the same count and under the same terms, to B12 belongs more than 1000 mfi.

The target is the same in the next assay. As to the kind of experiment: FACS, hN1 293 cells, MFI grade (+ 11-100). The protocol: as §1
B1: the MFI was in the range of 11 to 100 mfi.
The same measure, in the same setting: to B2 belongs 11 to 100 mfi.
The same measure, in the same setting: to B6 belongs 11 to 100 mfi; to B7, 11 to 100 mfi.

A further assay has as its target T3, human Notch3-Gal4 chimeric receptor on U2OS FlpIn TREx cells (human, UniProt Q9UM47 40-2321). Put plainly: cell-based or functional assay.
For the molecule B8, the “hN3, inhibition of Luc activity at [166 nM] Mab” value (“hN3, inhibition of Luc activity” below) was less than 10%.
On the same count and under the same terms, under B1 stands less than 10%; under B2, less than 10%.
The same measure, in the same setting: under B3 stands less than 10%; under B4, less than 10%.
The same measure, in the same setting: to B5 belongs less than 20%; to B6, less than 10%; to B7, less than 10%.

In another assay the target is T3, human Notch3-Gal4 chimeric receptor on …. As to the kind of experiment: cell-based or functional assay. The source holds these as a separate data set.
On to B9, for which the “hN3, inhibition of Luc activity” value was less than 5%.
For B10, the “hN3, inhibition of Luc activity” value was less than 5%.
For the molecule B11, the “hN3, inhibition of Luc activity” value was less than 5%.
On to B12, for which the “hN3, inhibition of Luc activity” value was less than 15%.

What is called Kd is the equilibrium constant for the complex coming apart. High values mean a looser complex, low ones a tighter complex. As usually defined, the koff is a measure of how fast the partners let go of each other. Higher therefore signals a short-lived complex. For orientation: kon means the second-order rate constant of association. One may read the EC50 as the midpoint of the concentration-response curve.
